In publication PMC7954794, “Protein context shapes the specificity of SH3 domain-mediated interactions in vivo” (Nature Communications, 2021):

System: PPIs identified as affected by the SH3 domain deletions
Assay: Liquid DHFR-PCA low-throughput validation of PPIs affected by SH3 deletion (Fig. S1D-E)
Type: cell-based, Saccharomyces cerevisiae
Conditions: label = prey, liquid DHFR-PCA, prey _1 = lost, _2 = gained in screen
How it was run: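 Yeast diploids from DHFR-PCA mating grown 48 h in synthetic complete MSG medium pH 6.0 with NAT and HPH, normalized to 1 OD and diluted to 0.1 OD in liquid PCA selection medium. Growth followed by OD every 15 min for 72 h at 30 °C.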

B1: YOR042W_1 (protein, UniProt Q08412 1-411, looked up)
Ubiquitin-binding protein CUE5: MEEKEGIKDSSLLEKSNVPESINEDISKTTDVDLNSDGKKDNDTSAKDGTPKVEEKVNKSSGIDEDEVVTPAEDAKEEEEEHPPLPARRKSEEEPSKENPILQELKDAFPNLEEKYIKAVIIASQGVLSPAFNALLFLSDPESGKDIELPTQPVRKNPEAPARRRQTQLEQDELLARQLDEQFNSSHSRRRNRDRATRSMHEQRRRRHNPNEREQHHEDSEEEDSWSQFVEKDLPELTDRAGRSLQDTANKVSNWISDAYRRNFASGNEQNDNQHGHQDQQEWEPEIVDLSQGGKNSRPQQPERRRFNSFGVQVGDDSLESHGITLHNEDGFEDDEDVPPQLPTRTKSGESTGKVVAETTYIDTPDTETKKKWQPLPPEPLDTTPTKVNAVSRNKKNPDEDEFLINSDDEM
Ratio (Deletedscore / WTscore) (bait BBC1): 0.4675 | Ratio (Deletedscore / WTscore) (bait PIN3): 0.5809

B2: YBR102C_1 (protein, UniProt P38261 1-753, looked up)
Exocyst complex component …: MVEFSLKKARNNWKHVKKSASSPAKQKTPPSPAKPKQKTKKNPYSDLKDPATSYTLPTINARERSRVATSMQRRLSIHNTNYAPPTLDYSMPLPDMPNMIVPNDNVDSSHNNSSFTTENESVSSKGPSNSLNLSTADLSLNDSSYNKVPARSAMRNTVNPSGSNDPFNNSTSLRKMLANPHFNAKDFVHDKLGNASAITIDKFTSNLTDLSIQVQEEVKLNINKSYNEIMTVNNDLNVAMLELKRVRANINDLNEVLDQCTKIAEKRLQLQDQIDQERQGNFNNVESHSNSPALLPPLKAGQNGNLMRRDRSSVLILEKFWDTELDQLFKNVEGAQKFINSTKGRHILMNSANWMELNTTTGKPLQMVQIFILNDLVLIADKSRDKQNDFIVSQCYPLKDVTVTQEEFSTKRLLFKFSNSNSSLYECRDADECSRLLDVIRKAKDDLCDIFHVEEENSKRIRESFRYLQSTQQTPGRENNRSPNKNKRRSMGGSITPGRNVTGAMDQYLLQNLTLSMHSRPRSRDMSSTAQRLKFLDEGVEEIDIELARLRFESAVETLLDIESQLEDLSERISDEELMLLNLISLKIEQRREAISSKLSQSILSSNEIVHLKSGTENMIKLGLPEQALDLFLQNRSNFIQDLILQIGSVDNPTNYLTQLAVIRFQTIKKTVEDFQDIFKELGAKISSILVDWCSDEVDNHFKLIDKQLLNDEMLSPGSIKSSRKQIDGLKAVGLDFVYKLDEFIKKNSDKIR
Ratio (Deletedscore / WTscore) (bait BEM1-1): 0.5987 | Ratio (Deletedscore / WTscore) (bait BEM1-2): 0.6932 | Ratio (Deletedscore / WTscore) (bait RVS167): 0.8234

B3: YNL243W_1 (protein, UniProt P33338 1-968, looked up)
Protein SLA2: MSRIDSDLQKALKKACSVEETAPKRKHVRACIVYTWDHQSSKAVFTTLKTLPLANDEVQLFKMLIVLHKIIQEGHPSALAEAIRDRDWIRSLGRVHSGGSSYSKLIREYVRYLVLKLDFHAHHRGFNNGTFEYEEYVSLVSVSDPDEGYETILDLMSLQDSLDEFSQIIFASIQSERRNTECKISALIPLIAESYGIYKFITSMLRAMHRQLNDAEGDAALQPLKERYELQHARLFEFYADCSSVKYLTTLVTIPKLPVDAPDVFLINDVDESKEIKFKKREPSVTPARTPARTPTPTPPVVAEPAISPRPVSQRTTSTPTGYLQTMPTGATTGMMIPTATGAANAIFPQATAQMQPDFWANQQAQFANEQNRLEQERVQQLQQQQAQQELFQQQLQKAQQDMMNMQLQQQNQHQNDLIALTNQYEKDQALLQQYDQRVQQLESEITTMDSTASKQLANKDEQLTALQDQLDVWERKYESLAKLYSQLRQEHLNLLPRFKKLQLKVNSAQESIQKKEQLEHKLKQKDLQMAELVKDRDRARLELERSINNAEADSAAATAAAETMTQDKMNPILDAILESGINTIQESVYNLDSPLSWSGPLTPPTFLLSLLESTSENATEFATSFNNLIVDGLAHGDQTEVIHCVSDFSTSMATLVTNSKAYAVTTLPQEQSDQILTLVKRCAREAQYFFEDLMSENLNQVGDEEKTDIVINANVDMQEKLQELSLAIEPLLNIQSVKSNKETNPHSELVATADKIVKSSEHLRVDVPKPLLSLALMIIDAVVALVKAAIQCQNEIATTTSIPLNQFYLKNSRWTEGLISAAKAVAGATNVLITTASKLITSEDNENTSPEQFIVASKEVAASTIQLVAASRVKTSIHSKAQDKLEHCSKDVTDACRSLGNHVMGMIEDDHSTSQQQQPLDFTSEHTLKTAEMEQQVEILKLEQSLSNARKRLGEIRRHAYYNQDDD
Ratio (Deletedscore / WTscore) (bait BBC1): 0.664 | Ratio (Deletedscore / WTscore) (bait BEM1-1): 1.137 | Ratio (Deletedscore / WTscore) (bait BEM1-2): 0.8469 | Ratio (Deletedscore / WTscore) (bait BZZ1-1): 0.856 | Ratio (Deletedscore / WTscore) (bait HOF1): 0.8741 | Ratio (Deletedscore / WTscore) (bait MYO3): 0.5927 | Ratio (Deletedscore / WTscore) (bait MYO5): 0.7315 | Ratio (Deletedscore / WTscore) (bait PIN3): 1.05

B4: YCR088W_1 (protein, UniProt P15891 2-592, looked up)
Actin-binding protein: ALEPIDYTTHSREIDAEYLKIVRGSDPDTTWLIISPNAKKEYEPESTGSSFHDFLQLFDETKVQYGLARVSPPGSDVEKIIIIGWCPDSAPLKTRASFAANFAAVANNLFKGYHVQVTARDEDDLDENELLMKISNAAGARYSIQTSSKQQGKASTPPVKKSFTPSKSPAPVSKKEPVKTPSPAPAAKISSRVNDNNDDDDWNEPELKERDFDQAPLKPNQSSYKPIGKIDLQKVIAEEKAKEDPRLVQKPTAAGSKIDPSSDIANLKNESKLKRDSEFNSFLGTTKPPSMTESSLKNDDDKVIKGFRNEKSPAQLWAERKAKQNSGNAETKAEAPKPEVPEDEPEGEPDVKDLKSKFEGLAASEKEEEEMENKFAPPPKKSEPTIISPKPFSKPQEPVKAEEAEQPKTDYKKIGNPLPGMHIEADNEEEPEENDDDWDDDEDEAAQPPLPSRNVASGAPVQKEEPEQEEIAPSLPSRNSIPAPKQEEAPEQAPEEEIEEEAEEAAPQLPSRSSAAPPPPPRRATPEKKPKENPWATAEYDYDAAEDNELTFVENDKIINIEFVDDDWWLGELEKDGSKGLFPSNYVSLGN
Ratio (Deletedscore / WTscore) (bait BEM1-1): 0.8735

B5: YML016C_1 (protein, UniProt P26570 2-692, looked up)
Serine/threonine-protein …: GNSSSKSSKKDSHSNSSSRNPRPQVSRTETSHSVKSAKSNKSSRSRRSLPSSSTTNTNSNVPDPSTPSKPNLEVNHQRHSSHTNRYHFPSSSHSHSNSQNELLTTPSSSSTKRPSTSRRSSYNTKAAADLPPSMIQMEPKSPILKTNNSSTHVSKHKSSYSSTYYENALTDDDNDDKDNDISHTKRFSRSSNSRPSSIRSGSVSRRKSDVTHEEPNNGSYSSNNQENYLVQALTRSNSHASSLHSRKSSFGSDGNTAYSTPLNSPGLSKLTDHSGEYFTSNSTSSLNHHSSRDIYPSKHISNDDDIENSSQLSNIHASMENVNDKNNNITDSKKDPNEEFNDIMQSSGNKNAPKKFKKPIDIDETIQKLLDAGYAAKRTKNVCLKNNEILQICIKAREIFLSQPSLLELSPPVKIVGDVHGQYGDLLRLFTKCGFPPSSNYLFLGDYVDRGKQSLETILLLFCYKIKYPENFFLLRGNHECANVTRVYGFYDECKRRCNIKIWKTFIDTFNTLPLAAIVAGKIFCVHGGLSPVLNSMDEIRHVVRPTDVPDFGLINDLLWSDPTDSPNEWEDNERGVSYCYNKVAINKFLNKFGFDLVCRAHMVVEDGYEFFNDRSLVTVFSAPNYCGEFDNWGAVMSVSEGLLCSFELLDPLDSAALKQVMKKGRQERKLANQQQQMMETSITNDNESQQ
Ratio (Deletedscore / WTscore) (bait BBC1): 0.8012 | Ratio (Deletedscore / WTscore) (bait BEM1-2): 0.6049 | Ratio (Deletedscore / WTscore) (bait MYO3): 0.8355

B6: YCR030C_1 (protein, UniProt P25623 1-870, looked up)
Suppressor of yeast profilin …: MTEQRTKYADSILTTKSPYEATETIRIRLSQVKLLNKDFYLLFKELANLKRNYAQQLRKIIAENEDITKILNAQMIESNVLTPQEMSAFRFNSLGELRNVWDTVIEELKSDLKSSTEYYNTLDQQVVRELKESVENNTSWRESKDLHSKLSKNAASIEHYSKNNENSSHLEEARRQWDQQSPYLFELFETIDYNRLDTLKNCMLRFQTSFSDYLLNTTKECETVMTKFLAFEPQSEIDRFAKDASQYNFQLSSSSKEVVPNNASPASATGARPVSVSNGAANTEREKKSPQKDKRKSAFGNIGHRLASASSSLTHNDLMNNEFSDSTNNSSLKSKKSSHTLRSKVGSIFGRNKTKNKRQQQSSSNSHIQASITETPNNSSTRVSSTATSSIYQKQRRPTYSSSKSNNWTPGEASDTPPLPPHATPKNVDAPVTADTPPAQTFTPSEVPPSTPQQSSPPTAKEPDSSNLPKTVPISISQPPLQPQSKTKPLPVEPASPSISLPTATVDNQPSGQVDSRPLHIRAPALPPSRKQNFIHNRDSQLYDSLPNHGSGATPTSSSLSSIPQERPVSTLSSQITGELRELNPQATGSSTSLVGQSLFQHSSLDTSQFGLNASIAEVLNASFKDGMLQNSQLIGEIALNYLPNSVMNSPLPIGINLRINNGAKFEKVILNQAFIERVAPEEFKVNPSFIDSRTLGAIKYSIKEPIAPIVIHPVWRFESHQASVVLTVKMSPSLPDEISQIVIEDLVVFVNIDGANATSALSKPQGSFSKEKKRITWRFKEPVVLTRNGEGQRLIARFITDGLAHESAKGVITKFTISETDNVALPHSGAGSGITLTCQELDENNPFGGEWLDVNTKRTLTTGNYHGLA
Ratio (Deletedscore / WTscore) (bait BEM1-1): 1.033 | Ratio (Deletedscore / WTscore) (bait BEM1-2): 0.5499 | Ratio (Deletedscore / WTscore) (bait MYO3): 0.7978 | Ratio (Deletedscore / WTscore) (bait MYO5): 0.5102 | Ratio (Deletedscore / WTscore) (bait RVS167): 0.6932
